In patent US20180147231A1, “METHOD FOR TREATMENT AND PROGNOSIS OF COLORECTAL CANCER” (Oxford University Innovation Limited, priority 2015, published 2018):

Columns and labels:
[1] = test system: SOCS3 expression in CRC lines (Colo205, LS103, SW948, T84, SW480, HCT116); assay: qPCR of SOCS3 after IL-22 stimulation of CRC cell lines; type: cell-based, human; settings: 24 h stimulation with IL-22, n=3
Text: (A) qPCR analysis of IL22RA1 expression level on 3 KRAS-WT (Colo205, LS103, SW948) and 3 KRAS-mutant (T84, SW480, HCT116) CRC cell lines. n=3 *p<0.05, **p<0.01, one-way ANOVA with Tukey's post test for multiple comparisons. (B) Representative FACS plots of IL-22RA1 expression on the Colo205 (KRAS-WT, IL-22RA1^high), T84 (KRAS-Mut, IL-22RA1^high), and SW480 (KRAS-mutant, IL-22RA1^low) lines. (C) Western blot analysis of activation of STAT3, ERK, and Akt signaling pathways in 6 CRC lines following 24 h stimulation with 1 ng/mL IL-22, 10 ng/mL IL-22, and 1 ng/mL IL-6. 1 blot representative of 3 independent experiments.
Colo205, LS1034, SW948, SW480, T84, and HCT116 (ATCC) colorectal cancer cell (CRC) lines were a generous gift from Dr. Simon Leedham and were confirmed to be mycoplasma free. X-MAN DLD-1 isogenic cells were purchased from Horizon Discovery. […]
RNA was extracted from cultured monolayers of CRC lines, suspensions of LIM1863 spheroids, and CRC line derived spheres using the RNeasy Mini Kit (Qiagen) according to the manufacturers protocol. cDNA was synthesized using the High-Capacity cDNA Reverse Transcription Kit (Applied Biosystems). Gene expression was analyzed using Taqman® Gene Expression Assays (Applied Biosystems) and run with Precision 2× Master Mix (Primerdesign) in 384 well plates using the ViiA7 Real-Time PCR System (Applied Biosystems). […]

[2] = test system: DLD-1 KRAS MUT cells (heterozygous KRAS G13D); assay: Phosflow analysis of intracellular signaling, DLD-1 KRAS MUT; type: cell-based; settings: 30 min 10 ng/mL recombinant human IL-22
Experimental: (§1) Therefore this isogenic pair differs only in KRAS mutation status and allows a clean system for comparison of KRAS-dependent IL-22 effects without inter-cell line mutational heterogeneity. (A) Representative FACS plots of IL-22RA1 expression and quantification of mean fluorescence intensity (WI) showing similar IL-22RA1 expression in the isogenic pair (4 experimental replicates). […] MTT was added 2 h prior to end of 48 h incubation. Formazan particles were dissolved in DMSO and absorbance was measured at 540 nm. Raw absorbances are blank corrected, normalized to a no treatment, and represented as a % viability compared to the no treatment condition. n=5 independent experiments with 3 experimental replicates. p values computed by non-parametric Mann-Whitney test comparing 5 FU alone to IL-22 pretreatment with 5 FU for each DLD-1 line.
Adherent Colo205, T84, SW480, and DLD-1 cells were dissociated using StemPro® Accutase® (Life Technologies), filtered through […] filters, and counted by Trypan Blue exclusion. 5×10^5 cells of each line were stained with 5 μL Human IL-22 R alpha 1 Phycoerythrin MAb (Clone 305405) (R&D Systems) or […] isotype rat anti-mouse IgG1 PE (BD Biosciences) and incubated for 30 minutes at room temperature. Cells were washed with PBS, 0.1% BSA, 2 mM EDTA and acquired on the BD LSRII. Analysis was performed using FlowJo (Tree Star) software. For analysis of intracellular signaling pathways by phosflow, DLD-1 isogenic cells were plated in 6 well plates (1.5 million cells/well) in serum free RPMI and allowed to adhere overnight. DLD-1 cells were then stimulated or not for 30 minutes with increasing doses of recombinant human IL-22 (0.001 ng/mL-100 ng/mL). Cells were dissociated with TrypLE, fixed for 10 min at 37° C. with BD Cytofix Fixation Buffer. Cells were then permeabilized in BD Phosflow Perm Buffer III for 30 min on ice. […]

DLD-1 KRAS MUT cells = assay: Chemotherapy killing assay (MTT), DLD-1 KRAS MUT; type: cell-based, human; settings: 48 h pre-treatment with 10 ng/mL IL-22, then 50 μM 5-FU for 48 h
Experimental: as §1
Colo205, T84, SW480, and DLD-1 cells were seeded at a density of 1×10^4 cells/well in 48 well plates. Cells were pre-treated for 48 h with 10 ng/mL IL-22, then subjected to 50 μM oxaliplatin (Sigma) or 5-fluorouracil (Sigma) or vehicle control (DMSO) for 48 h. 50 μg Methylthiazolyldiphenyl-tetrazolium bromide (MTT) (Sigma) was added to each well 2 h prior to the end of incubation. […] Absorbance was measured at 540 nm on Spectrostar Nano plate reader (BMG Labtech).

B1: IL-22: recombinant human IL-22 (R&D Systems), IL-10 superfamily cytokine; human sequence SEQ ID NO: 5 (protein, listed as Homo sapiens)
chain: MAALQKSVSSFLMGTLATSCLLLLALLVQGGAAAPISSHCRLDKSNFQQPYITNRTFMLAKEASLADNNTDVRLIGEKLFHGVSMSERCYLMKQVLNFTLEEVLFPQSDRFQPYMQEVVPFLARLSNRLSTCHIEGDDLHIQRNVQKLKDTVKKLGESGEIKAIGELDLLFMSLRNACI
In the case of B1, the “SOCS3 expression (confirmation of active downstream IL-22 signaling)” value [1] is reported as “upregulation of SOCS3”, the “Phosphorylated ERK1/2” value [2] is reported as “not IL-22 inducible” and the “Phosphorylated S6” value [2] is reported as “IL-22 inducible phosphorylated S6”. For the same molecule, the “Phosphorylated STAT3” value [2] was “identical extent of phosphorylated STAT3” and the “Protection against 5-fluorouracil mediated cell death” value (DLD-1 KRAS MUT cells) was “protects against 5 fluorouracil mediated cell death”.
